Assay [1] addresses N-terminal OB-fold domain of RPA70 (RPA70N) (human, UniProt P27694 1-120). In words: fluorescence polarisation.
Assay [2] has as its target T1, ATRIP peptide (Homo sapiens, UniProt Q8WXE1).
T1 chain: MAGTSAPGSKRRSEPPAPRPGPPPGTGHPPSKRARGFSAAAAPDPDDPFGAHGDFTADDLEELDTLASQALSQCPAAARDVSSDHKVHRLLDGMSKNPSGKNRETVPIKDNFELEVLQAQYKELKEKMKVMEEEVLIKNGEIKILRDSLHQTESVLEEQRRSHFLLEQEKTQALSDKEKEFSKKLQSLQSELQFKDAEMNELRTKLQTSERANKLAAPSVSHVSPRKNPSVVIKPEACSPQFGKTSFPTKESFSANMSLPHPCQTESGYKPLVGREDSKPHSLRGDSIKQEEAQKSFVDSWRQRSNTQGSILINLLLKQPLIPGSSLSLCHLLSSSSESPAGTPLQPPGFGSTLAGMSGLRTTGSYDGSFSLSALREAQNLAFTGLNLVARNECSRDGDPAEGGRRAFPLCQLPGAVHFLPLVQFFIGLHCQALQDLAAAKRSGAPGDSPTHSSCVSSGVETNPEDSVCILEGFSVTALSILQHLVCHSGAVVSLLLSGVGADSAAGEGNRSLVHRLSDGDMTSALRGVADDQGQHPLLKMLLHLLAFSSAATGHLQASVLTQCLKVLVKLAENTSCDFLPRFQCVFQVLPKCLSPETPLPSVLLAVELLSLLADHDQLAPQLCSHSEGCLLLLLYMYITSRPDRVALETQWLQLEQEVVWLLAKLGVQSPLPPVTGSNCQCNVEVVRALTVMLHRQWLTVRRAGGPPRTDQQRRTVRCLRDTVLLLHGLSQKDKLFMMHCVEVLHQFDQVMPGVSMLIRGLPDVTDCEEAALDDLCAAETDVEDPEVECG
Description: NMR.

The target of assay [3] is T2, RAD9 peptide (Homo sapiens, UniProt Q99638).
T2 chain: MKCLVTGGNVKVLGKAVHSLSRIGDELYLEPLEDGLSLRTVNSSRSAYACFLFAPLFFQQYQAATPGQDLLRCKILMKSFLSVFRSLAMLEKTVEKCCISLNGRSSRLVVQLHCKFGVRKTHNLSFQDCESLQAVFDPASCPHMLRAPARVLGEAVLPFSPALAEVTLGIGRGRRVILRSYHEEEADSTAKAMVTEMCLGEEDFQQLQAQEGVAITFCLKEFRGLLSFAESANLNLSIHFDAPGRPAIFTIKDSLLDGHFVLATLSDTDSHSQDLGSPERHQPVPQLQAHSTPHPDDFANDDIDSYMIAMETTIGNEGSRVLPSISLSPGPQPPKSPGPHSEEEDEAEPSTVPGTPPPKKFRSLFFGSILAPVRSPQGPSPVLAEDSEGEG
Description: anisotropy.

On to Ac-DFANDDIDSYMIAME-NH2 [RAD9 peptide (Ac-DFANDDIDSYMIAME-NH2)], for which, in assay [1], the midpoint of inhibition, the IC50, lay at 102 ± 13.6 µM.

B1: RPA70N 70N (protein)
chain: MVGQLSEGAIAAIMQKGDTNIKPILQVINIRPITTGNSPPRYRLLMSDGLNTLSSFMLATQLNPLVEEEQLSSNCVCQIHRFIVNTLKDGRRVVILMELEVLKSAEAVGVKIGNPVPYNE
With B1, the figures for the Kd in assay [2] and in assay [3] were 48 µM and 51 µM, respectively.

(Values after publication PMC3274598 (Analytical Biochemistry, 2011).)
